Source: the nanobody polyreactivity screen of Harvey et al. (2022)

Test: yeast display, Sf9 membrane polyspecificity reagent, FACS + sequencing; frameworks hold sequencing errors
How it was run: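 Galactose-induced (36–48 hours) yeast carrying a synthetic nanobody display library were exposed to 10% biotinylated, detergent-solubilized Sf9 membrane reagent at 4 °C for 1 hour. FACS followed streptavidin microbead enrichment, using low and high (top ~1%) gates for expression (anti-HA) and reagent binding (streptavidin). Colony PCR, MiSeq 2 × 250 sequencing and CDR-length filtering followed. Labels for polyreactivity reflect the gate of origin.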

QVQLVESGGGLVQAGGSLRLSCAASGSTFGDNAMGSYRQAPGKERELVAAISSGGGSTYYADSVKGRFTISRDNAKNTVYLQMNSLKPEDTAVYYCAADVTLTLYRYILDYWGQGTQVTVSS
polyreactivity (PSR sort gate): low polyreactivity

QVQLVESGGGLVQAGGSLRLSCAASGSTFGDNAMGWYRQAPGKERELVAAISSSGDSTYYADSVKGRFTISRDNAKNTVYLQMNSLKPEDTAVYYCAADRGSTAGSVTYTPGNYWGQGTQVTVSS
polyreactivity (PSR sort gate): low polyreactivity

QVQLVESGGGLVQAGGSLRLSCAASGSTFGDYAMGWYRQAPGKERELVAAISSSGGSTYYADSVKGRFTISRDNAKNTVYLQMNSLKPEDTAVYYCNADRFLYYARTYWYFWFGYWGQGTQVTVSS
polyreactivity (PSR sort gate): low polyreactivity

QVQLVESGGGLVQAGGSLRLSCAASGSTFGDYDMGWYRQAPGKERELVAAITIGGITTYADSVKGRFTISRDNAKNTVYLQMNSLKPEDTAVYYCAAAERGDWDDYWGQGTQVTVSS
polyreactivity (PSR sort gate): low polyreactivity

QVQLVESGGGLVQAGGSLRLSCAASGSTFGDYTMGWYRQAPGKERELVAAISSGGSTYYADSVKGRFTISRDNAKNTVYLQMNSLKPEDTAVYYCAAYTKRYLYNYWGQGTQVTVSS
polyreactivity (PSR sort gate): high polyreactivity

QVQLVESGGGLVQAGGSLRLSCAASGSTFGENDRGWSRQEPGKERELVAAITWSGGSTYYADSVKGRFTISRDNAKNTVYLQMNSLKPEDTAVYYCAADRYWIVLYDYWGQGTQVTVSS
polyreactivity (PSR sort gate): low polyreactivity

QVQLVESGGGLVQAGGSLRLSCAASGSTFGEYPMGWYRQAPGKEREFVAAITFSDDSTYYADSVKGRFTISRDNAKNTVYLQMNSLKPEDTAVYYCAAVLSRHYDYWGQGTQVTVSS
polyreactivity (PSR sort gate): high polyreactivity

QVQLVESGGGLVQAGGSLRLSCAASGSTFGFYAMGGYRQAPGKERELVAAITSGDITYADSVKGRFTISRDNAKNTVYLQMNSLKPEDTAVYYCATTSYGYWFGYIPEVDYWGQGTQVSVSS
polyreactivity (PSR sort gate): low polyreactivity

QVQLVESGGGLVQAGGSLRLSCAASGSTFGFYAMGWYRPAPGKERELVAAISWSTTSTYYADSVKGRFTISRDNAKNTVYLQMNSLKPEDTAVYYCAAEEWYLWYYYWGQGTQVTVSS
polyreactivity (PSR sort gate): high polyreactivity

QVQLVESGGGLVQAGGSLRLSCAASGSTFGGYAMGWYRQAPGKEWELVAAISWNGDSTYYADSVKGRFTISRDNAKNTVYLQMNSLKPEDTAVYYCAAPYSGPYRSYEYYWGQGTQVTVSS
polyreactivity (PSR sort gate): low polyreactivity

QVQLVESGGGLVQAGGSLRLSCAASGSTFGGYVMGWYRQAPGKERELVAAIRRVGRTYYADSVKGRFTISRDNAKNTVYLQMNSLKPEDTAVYYCATSYYLAYRSITPYDYWGQGTQVTVSS
polyreactivity (PSR sort gate): low polyreactivity

QVQLVESGGGLVQAGGSLRLSCAASGSTFGGYVMGWYRQAPGKERELVAAISRSGASTYYADSVKGRFTISRDNAKNTVYLQMNSLKPEDTAVYYCAAYQARGMDYWGQGTQVTVSS
polyreactivity (PSR sort gate): high polyreactivity

QVQLVESGGGLVQAGGSLRLSCAASGSTFGHYAMGWYRQAPGKERELVAVISRSGARTYYADSVKGRFTISRDNAKNTVYLQMNSLKPEDTAVYYCNAGPYGGNPFDYWGQGTQVTVSS
polyreactivity (PSR sort gate): high polyreactivity

QVQLVESGGGLVQAGGSLRLSCAASGSTFGINAMGWYRQAHGKERELVARISSGVRTYYADSVKGRFTISRDNAKNTVYLQMNSLKPEDTAVYYCAAVYYRGVDRAILSYRYYYWGQGTQVTVSS
polyreactivity (PSR sort gate): high polyreactivity

QVQLVESGGGLVQAGGSLRLSCAASGSTFGINAMVWYRQAPGKERELVASITRRGGSTYYADSVKGRFTISRDNAKNTVYLQMNSLKPEDTAVYYCNKTYRYGTPLYDYWGQGTQVTVSS
polyreactivity (PSR sort gate): high polyreactivity

QVQLVESGGGLVQAGGSLRLSCAASGSTFGIYAMRWYRQAPGKERELVAAISSRGSTYYADSVKGRFTISRDNAKNTVYLQMNSLKPEDTAVYYCAAKVWARVDGRQFRMVYWGQGTQVTVSS
polyreactivity (PSR sort gate): high polyreactivity

QVQLVESGGGLVQAGGSLRLSCAASGSTFGIYPMAGNRTEPGKERELVAAISSGGSTNYADSVKGRFTISRDNAKNSVYLQMNSLNPEDTAVYYCAVESVYEYGGYVDSAYDYWGQGTQVTVSS
polyreactivity (PSR sort gate): low polyreactivity

QVQLVESGGGLVQAGGSLRLSCAASGSTFGKNAMGWSRQAPGNERELVAGITSGGSTYYADSVKGRFTISRDNAKNTVYLQMNSLKPEDTAVYYCAAVRRWKYDWGQGTQVTVSS
polyreactivity (PSR sort gate): high polyreactivity

QVQLVESGGGLVQAGGSLRLSCAASGSTFGKNAMGWYRQAPRKERELVAAISRSGGRTYYADSVKGRFTISRDNAKNTVYLQMNSLKPEDTAVYYCAREWYTAGSGDYWGQGTQVTVSS
polyreactivity (PSR sort gate): low polyreactivity

QVQLVESGGGLVQAGGSLRLSCAASGSTFGLKAMGWYRQAPGKERELVAAITSGGTYYADSVKGRFTISRDNAKNTVYLQMNSLKPEDTAVYYCAADGTWSIYGGLYYWGQGTQVTVSS
polyreactivity (PSR sort gate): low polyreactivity

QVQLVESGGGLVQAGGSLRLSCAASGSTFGLNPMGWYRQAPGKERELVAAISTSGGSTYYADSVKGRFTISRDNAKNTVYLQMNSLKPEDTAVYYCAAEVVAGYDYSQYYYWGQGTQVTVSS
polyreactivity (PSR sort gate): low polyreactivity

QVQLVESGGGLVQAGGSLRLSCAASGSTFGLYAMGWYRQAPGKEREFVAAISYSGSSTYYADSVKGRFTISRDNAKNTVYLQMNSLKPSDTAVYYCAARRSEHGYTYWGQGSQVTVSS
polyreactivity (PSR sort gate): high polyreactivity

QVQLVESGGGLVQAGGSLRLSCAASGSTFGLYGMGWYRQAPGKERELVAAITYSGGGTYYADSVKGRFTISRDNAKNTVYLQMNSLKPEDTAVYYCAAEYYSSITGWYYYWGQGTLVTVSS
polyreactivity (PSR sort gate): low polyreactivity

QVQLVESGGGLVQAGGSLRLSCAASGSTFGLYVMGWYRQAPGKERELVAAINRICSRTYYADSVKGRFTISRDNAKNTVYLQMNSLKPEDTAVYYCAADYDYTSPGDDYWGQGTQVTVSS
polyreactivity (PSR sort gate): high polyreactivity

QVQLVESGGGLVQAGGSLRLSCAASGSTFGLYVMGWYRQAPGKERELVATITRSGGSTYADSVKGRFTISRDNAKNTVYLQMNSLKPEDTAVYYCNADYPKPVYYSYWHQEFEYWGQGTQVTVSS
polyreactivity (PSR sort gate): low polyreactivity

QVQLVESGGGLVQAGGSLRLSCAASGSTFGNNAMGWYRQAPGKERELVAAITFRGTSTYADSVKGRFTISRDNAKNTVSLQMNSLKPEDTAVYYCAAVVYFVSYRFYYWGQGTQVTVSS
polyreactivity (PSR sort gate): high polyreactivity

QVQLVESGGGLVQAGGSLRLSCAASGSTFGNYAMGWYRQAPGKERELVATISRSGGSTYYADSVKGRFTISRDNAKNTVYLQMNSLKPEDTAVYYCNRRYYTRKPDYNSWGQGTQVTVSS
polyreactivity (PSR sort gate): high polyreactivity

QVQLVESGGGLVQAGGSLRLSCAASGSTFGNYAMGWYRQAPGKERELVAVITSAGSTYYADSVKGRFTISRDNAKNTVYLQMNSLKPEDTAVYYCNTGKHVRYYYWGQGTQVTVSS
polyreactivity (PSR sort gate): low polyreactivity

QVQLVESGGGLVQAGGSLRLSCAASGSTFGPYALGWYRQAPGKERELVAAIDKSGGSTYYADSVKGRFTISRDNAKNTVYLQMNSLKPEDTAVYYCAADMLRYFGYYDYDSWGQGTQVTVSS
polyreactivity (PSR sort gate): low polyreactivity

QVQLVESGGGLVQAGGSLRLSCAASGSTFGPYAMGWYRQAPGKERELVAGITWSSASTYYADSVKGRFTISRDNAKNTVYLQMNSLKPEDTAVYYCIADSESTDYDYWGQGTQVTVSS
polyreactivity (PSR sort gate): low polyreactivity

QVQLVESGGGLVQAGGSLRLSCAASGSTFGPYAMGWYRQAPGKERELVATISGSGSSTYYADSVKGRFTISRDNAKNTVYLQMNSLKPEDTAVYYCATDLYFDLRYDYWGQGTQVTVSS
polyreactivity (PSR sort gate): low polyreactivity

QVQLVESGGGLVQAGGSLRLSCAASGSTFGPYTMGWYRQAPGKERELVATISSGGSTYYADSVKGRFTISRDNAKNTVYLQMNSLKPEDTAVYYCAARYWSIYDYWGQGTQVTVSS
polyreactivity (PSR sort gate): low polyreactivity

QVQLVESGGGLVQAGGSLRLSCAASGSTFGQYGMGWYRQAPGKERELVAAIRIGGSTNYADSVKGRFTISRDNAKNTVYLQMNSLKPEDTAVYYCNAGGTPTWTHGGYIELDYWGQGTQVTVSS
polyreactivity (PSR sort gate): low polyreactivity

QVQLVESGGGLVQAGGSLRLSCAASGSTFGRNAMGWYRQAPGKERELVAAISRSGGSTYYADSVKGRFTISRDNAKNTVYLQMNRLKPEDTAVYYCAAAVSPGGVYGNRYYYWGQGTQVTVSS
polyreactivity (PSR sort gate): high polyreactivity

QVQLVESGGGLVQAGGSLRLSCAASGSTFGRNAMGWYRQAPGKERELVAAITASGGTTYYADSVKGRFTISRDNAKNTVFLQMNSLKPEDTSVYYCARAGHFSFKYDYWGQGTQVTVSS
polyreactivity (PSR sort gate): low polyreactivity

QVQLVESGGGLVQAGGSLRLSCAASGSTFGRNAMGWYRQAPGKERELVAGITRRGGSTYYADSVKGRFTISRDNAKNTVYLQMNSLKPEDTAVYYCNTRGQSSSGIYDYWGQGTQVTVSS
polyreactivity (PSR sort gate): high polyreactivity

QVQLVESGGGLVQAGGSLRLSCAASGSTFGRNAMGWYRQAPGKERELVATINWNGGRTYYADSVKGRFTISRDNAKNSVYLQMNSLKPEDTAVYYCNATKTGPATVRYYYWGQGTQVTVSS
polyreactivity (PSR sort gate): high polyreactivity

QVQLVESGGGLVQAGGSLRLSCAASGSTFGRNTMGWYRPAPGKERELVASITRSSTSTYYADSVKGRFTISRDNAKNTVYLQMNSLKPEDTAVYYCAARALRTDRSPVGRHEYWGQGTQVTVSS
polyreactivity (PSR sort gate): low polyreactivity

QVQLVESGGGLVQAGGSLRLSCAASGSTFGRYALGWYRQAPGKEREFVAAISWSGGSTYYADSVKGRFTISRDNAKNTVYLQMNSLKPEDSAVYYCAASYIYQSSWYHRMYYWGQGTQVTVSS
polyreactivity (PSR sort gate): high polyreactivity

QVQLVESGGGLVQAGGSLRLSCAASGSTFGRYAMGWYREAPGKERELVAGITYGSTYYADSVKGRVTISRDNAKNTVYLPMNSLKPEDTAVYACAADLSYTSVHGYRSETLMDYWGQGTQVTVSS
polyreactivity (PSR sort gate): low polyreactivity

QVQLVESGGGLVQAGGSLRLSCAASGSTFGRYAMGWYRQAPGKERELVAAISRRGGSTYYADSVKGRFTISRDNAKNTVYLQMNSLKPEDTAVYYCATGYPIDLGREFDYWGQGIQVTVSS
polyreactivity (PSR sort gate): high polyreactivity

QVQLVESGGGLVQAGGSLRLSCAASGSTFGRYAMGWYRQAPGKERELVAAITSDTGHTNYADSVKGRFTISRDNAKNTVYLQMNSLKPEDTAVYYCAAANFWVLWGHVIGNYDSWGQGTQVTVSS
polyreactivity (PSR sort gate): low polyreactivity

QVQLVESGGGLVQAGGSLRLSCAASGSTFGRYGMGWYSQAPGKERELVAAISKNAGSTYYADSVKGRCTISRDNAKNTVYLQMNSLKPEDTAVYYCAADWRTKGYDSLGQGTQVTVSS
polyreactivity (PSR sort gate): high polyreactivity
